The source of these data is patent publication US20070196376A1.

The target in one experiment is rat insulin (rat). Put plainly: ELISA on rat insulin; No Ag well 0.10.
The target of another experiment is mouse insulin (mouse). The experiment can be described thus: ELISA on mouse insulin; No Ag well 0.10.
Chain of mouse insulin (mouse) (P01308 whole entry): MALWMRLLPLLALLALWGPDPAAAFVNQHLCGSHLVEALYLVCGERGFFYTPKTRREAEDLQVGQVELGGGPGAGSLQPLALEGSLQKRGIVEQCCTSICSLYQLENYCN

Turning to “positive control anti-rat insulin antibody”, the OD 450 with rat insulin (rat) stood at 3.06 OD 450; with mouse insulin (mouse) it was 2.52 OD 450.
